For one substance, average FRET efficiency and mean donor photobleaching decay constant (CFP with YFP; CFP alone 0.72) results are on record in paper PMC3204175.

For the assay, the target named is CALM_(2091)AF10 (human) (UniProt Q13492). The experiment in a line: FRET or BRET. For orientation: BRET reads energy transfer from a luciferase to a nearby fluorophore.

As to “CALM_(2091)AF10 (from UniProt Q13492 1-648)”, the average FRET efficiency was determined as 13% and the mean donor photobleaching decay constant (CFP with YFP; CFP alone 0.72) was 0.5.
